{"source": "paper PMC7117543", "about": "(Biochemical and Biophysical Research Communications, 2008)", "molecular_target": "T1, staphylococcal enterotoxin B (SEB) (Staphylococcus aureus, UniProt P01552 28-266)", "T1 sequence": "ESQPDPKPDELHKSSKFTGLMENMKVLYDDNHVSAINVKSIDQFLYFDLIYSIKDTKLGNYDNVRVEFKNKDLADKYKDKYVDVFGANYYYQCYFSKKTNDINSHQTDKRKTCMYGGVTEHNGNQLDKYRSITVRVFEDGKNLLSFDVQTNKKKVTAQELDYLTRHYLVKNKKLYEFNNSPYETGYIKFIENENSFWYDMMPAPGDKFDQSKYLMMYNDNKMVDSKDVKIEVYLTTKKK", "experiment": "SPR", "data": [{"binder": "QHPQINQTLYRM", "note": "[phage clone 9 (M13 phage displaying QHPQINQTLYRM)]", "values": [{"measurement": "binding result", "value": "binds"}]}]}
